According to paper PMC9400960:

Each binder was assayed against PABP1-190 (RRM1/2) (human, UniProt P11940 1-190) (assay: MST competition).
PABP1-190 (RRM1/2), sequence (P11940 1-190): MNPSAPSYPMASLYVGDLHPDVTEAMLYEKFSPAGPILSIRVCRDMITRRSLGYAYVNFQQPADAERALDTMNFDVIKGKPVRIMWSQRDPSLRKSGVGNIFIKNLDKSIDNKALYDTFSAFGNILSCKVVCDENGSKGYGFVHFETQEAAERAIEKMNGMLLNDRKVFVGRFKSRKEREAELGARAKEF

For AAAAAAAAAAAA (XNA, 2'-F-A in middle part; positions in Figure 2/Table 1) [AF2], which binding signal is on record?
The binding signal was ~4 fold higher Kd app than A12.

AAAAAAAAAAAA (XNA, 2'-O-methyl-A in middle part; positions in Figure 2/Table 1) [Am2] was tested. Which binding signal did it give?
Its binding signal is ~7 fold higher Kd app than A12.

Which binding signal does the source give for AAAAAAAAAAAA (ssRNA, N6-methyl-A in middle part; positions in Figure 2/Table 1) [m6A2] here?
Its binding signal is ~12 fold higher Kd app than A12.
